Test results from patent US6881575.

T1: TAT-S216A peptide
T1 chain: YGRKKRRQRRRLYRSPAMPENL

T2: GST-Cdc25C (amino acid 200-256)
T2 sequence (P30307 whole entry, looked up): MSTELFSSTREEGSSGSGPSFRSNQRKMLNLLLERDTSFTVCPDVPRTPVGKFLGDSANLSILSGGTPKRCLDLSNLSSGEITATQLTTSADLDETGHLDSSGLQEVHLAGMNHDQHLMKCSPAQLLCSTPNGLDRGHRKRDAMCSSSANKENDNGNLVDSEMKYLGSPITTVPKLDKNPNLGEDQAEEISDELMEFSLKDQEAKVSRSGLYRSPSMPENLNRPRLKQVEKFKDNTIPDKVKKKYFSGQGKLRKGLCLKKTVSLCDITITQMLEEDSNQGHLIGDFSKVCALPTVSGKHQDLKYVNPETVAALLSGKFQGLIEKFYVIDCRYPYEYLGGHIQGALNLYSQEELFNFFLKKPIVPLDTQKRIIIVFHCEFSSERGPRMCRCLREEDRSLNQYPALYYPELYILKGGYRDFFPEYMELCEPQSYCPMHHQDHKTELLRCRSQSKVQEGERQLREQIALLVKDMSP

T3: Cdc25C peptide (amino acid 211 to 221 of Cdc25C; LYRSPSMPENL)
T3 chain: LYRSPSMPENL


Experiments:
[1] = biological target: T1, TAT-S216A peptide
[2] = biological target: TAT-S216 peptide
[3] = biological target: T2, GST-Cdc25C (amino acid 200-256)
[4] = biological target: T3, Cdc25C peptide (amino acid 211 to 221 …)

| Protein | phosphorylation of the peptide by hChk1 [1] | phosphorylation of the peptide by hChk1 [2] | in vitro phosphorylation of GST-Cdc25C by immunoprecipitated hChk1 (32P-ATP, SDS-PAGE autoradiogram) [3] | in vitro phosphorylation of the Cdc25C peptide by hChk1 [4] | in vitro phosphorylation of the Cdc25C peptide by Chk2/HuCds1 [4] |
| --- | --- | --- | --- | --- | --- |
| LYRSPSMFENL [HA-tagged hChk1] | TAT-S216 but not TAT-S216A was efficiently phosphorylated by hChk1 | TAT-S216 but not TAT-S216A was efficiently phosphorylated by hChk1 | hChk1 (SEQ ID NO:3) was capable of phosphorylating a Cdc25C protein (residues 20-256) (SEQ ID NO:1) fused to GST | phosphorylation of Cdc25C peptide (residues 200-256) (SEQ ID NO:1) mediated by hChk1 (SEQ ID NO:3) and Chk2/HuCds1 (SEQ ID NO:4) |  |
| LYRSPSMYENL [c-myc-tagged Chk2/HuCds1] |  |  |  |  | phosphorylation of Cdc25C peptide (residues 200-256) (SEQ ID NO:1) mediated by hChk1 (SEQ ID NO:3) and Chk2/HuCds1 (SEQ ID NO:4) |
